Data from publication PMC10382582 (Cell Discovery, 2023).

Target: biotinylated SARS-CoV-2 prototype RBD (SARS-CoV-2 (prototype), UniProt P0DTC2, biotin (biotinylated; site not stated))
Assay: BLI
Conditions: both partners purified

B1: pan-sarbecovirus mAb S2H97 (antibody, V domains shown)
VH: QVRLVQSGAEVKKSGESLKISCKGSGYSFTSYWIGWVRQMPGKGLEWMGIIYPGDSDTRYSPSFQGQVTISADKSISTVYLQWSSLKASDTAMYYCARQWSHYTYDYYYWGQGTLVTISS
VL: QSVLTQPASVSGSPGQSITISCTGISSDVGGYNSVSWYQQHPGKAPKLMIYDVTNRPSGVSNRFSGSKSGNTASLTISGLQAEDEADYYCSSYTSSSTPPYVFGTGTKVSVL
- binding result: binds
